Assay results published in patent US6323001A, “Increasing the trehalose content of organisms by transforming them with combinations of the structural genes for trehalose synthase” (BTG International Ltd., priority 1994, dated 2001).

Tested on: phosphoglucoisomerase (PGI) activity
Test: PGI activity of TPS activator
Format: biochemical, S. cerevisiae
Details: 50 mM HEPES/KOH pH 7.0, 5 mM MgCl2, 5 mM F6P; stored several months at 0° C.
Method: The PGI activity of a sample of TPS activator that had been stored for several months at 0° C. was measured in 50 mM HEPES/KOH pH 7.0, 5 mM MgCl2, 5 mM F6P and 0.4 mg/ml NADP. A specific activity of 190 U/mg was found.

B1: TPS activator: TPS activator from S. cerevisiae, identical to yeast phosphoglucoisomerase (protein, UniProt P12709 2-554, looked up)
Glucose-6-phosphate isomerase: SNNSFTNFKLATELPAWSKLQKIYESQGKTLSVKQEFQKDAKRFEKLNKTFTNYDGSKILFDYSKNLVNDEIIAALIELAKEANVTGLRDAMFKGEHINSTEDRAVYHVALRNRANKPMYVDGVNVAPEVDSVLKHMKEFSEQVRSGEWKGYTGKKITDVVNIGIGGSDLGPVMVTEALKHYAGVLDVHFVSNIDGTHIAETLKVVDPETTLFLIASKTFTTAETITNANTAKNWFLSKTGNDPSHIAKHFAALSTNETEVAKFGIDTKNMFGFESWVGGRYSVWSAIGLSVALYIGYDNFEAFLKGAEAVDNHFTQTPLEDNIPLLGGLLSVWYNNFFGAQTHLVAPFDQYLHRFPAYLQQLSMESNGKSVTRGNVFTDYSTGSILFGEPATNAQHSFFQLVHQGTKLIPSDFILAAQSHNPIENKLHQKMLASNFFAQAEALMVGKDEEQVKAEGATGGLVPHKVFSGNRPTTSILAQKITPATLGALIAYYEHVTFTEGAIWNINSFDQWGVELGKVLAKVIGKELDNSSTISTHDASTNGLINQFKEWM
- PGI specific activity: 190 U/mg
